Patent US20090264352A1 (published 2009)

Target: T1, GLP-1 receptor (RINm5F cell membranes) (UniProt P32301 22-463, limits assumed)
T1 construct: whole, on cells; The receptor source is homogenized cell membranes, not intact cells
T1 sequence (looked up): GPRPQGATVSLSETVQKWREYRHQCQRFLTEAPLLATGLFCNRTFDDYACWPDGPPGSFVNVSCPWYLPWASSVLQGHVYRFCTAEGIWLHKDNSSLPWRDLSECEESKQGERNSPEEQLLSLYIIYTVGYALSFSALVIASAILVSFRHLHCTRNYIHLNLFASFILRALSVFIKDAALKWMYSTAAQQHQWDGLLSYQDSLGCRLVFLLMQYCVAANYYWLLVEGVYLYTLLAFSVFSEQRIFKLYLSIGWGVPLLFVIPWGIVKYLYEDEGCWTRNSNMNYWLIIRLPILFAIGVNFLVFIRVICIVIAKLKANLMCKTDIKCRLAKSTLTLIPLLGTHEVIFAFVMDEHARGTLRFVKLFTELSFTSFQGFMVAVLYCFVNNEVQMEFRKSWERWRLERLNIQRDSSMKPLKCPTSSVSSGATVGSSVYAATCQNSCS
Experiment: displacement of [125I]GLP-1 from RINm5F cell membranes, filtration and scintillation counting
Procedure: Reaction mixtures are filtered through glass filter pads presoaked with 0.3% PEI solution and rinsed with ice-cold phosphate buffered saline. Bound counts are determined using a scintillation counter. Binding affinities are calculated using GraphPad Prism [sequence] PRISM® software (GraphPad Software, Inc., San Diego, Calif.).

IC50: 65 nM
B1: GLP-1 (9-36) (peptide, UniProt P01275 100-127, looked up)
peptide: EGTFTSDVSSYLEGQAAKEFIAWLVKGR
notes: range 100-127; Test compound in the displacement assay
